Results published in patent US20230192860A1 (Bristol-Myers Squibb, published 2023).

Experiments:
[1] = target: T1, human VISTA on cells (293T cells ectopically expressing full-length human VISTA); AML3 cells and human … (human, UniProt Q9H7M9 33-311); assay: cell-based or functional assay
T1 sequence: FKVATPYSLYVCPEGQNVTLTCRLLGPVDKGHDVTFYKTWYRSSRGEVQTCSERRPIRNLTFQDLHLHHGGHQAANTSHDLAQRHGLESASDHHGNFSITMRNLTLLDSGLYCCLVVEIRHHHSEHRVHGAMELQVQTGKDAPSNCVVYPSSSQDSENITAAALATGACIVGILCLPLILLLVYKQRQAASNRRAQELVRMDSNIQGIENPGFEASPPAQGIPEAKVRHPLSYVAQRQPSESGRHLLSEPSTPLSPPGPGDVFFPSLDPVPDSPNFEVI

[2] = target: T2, monovalent hVISTA-ECD (amino acids 32-193 of SEQ ID NO: 1 with a 7xHis tail) (human, UniProt Q9H7M9 33-193); assay: SPR, pH 7.4 over pH 6.0
T2 construct: analyte of the SPR assays; also called huVISTA-His; human VISTA-ECD
Description: (§1) Further binding kinetic experiments were performed at various pHs on VISTA antibodies described herein by SPR as generally described in Example 9 above. Antibodies were normalized to 50 nM concentration in PBST pH 7.4 and captured on a Protein A CM5 chip (ID 4931) by injecting for 45 seconds at a 5 µL/min flow rate. An 8-point human VISTA titration ([…]) was prepared in PBST at pH 7.4, 6.9, 6.45, and 6.0. Titrations were injected over the captured antibodies for 180 seconds at 30 µL/min. Sensorgrams were fit to a 1:1 binding model in T200 evaluation software and the kinetic constants were reported.
Each table reports the data at one of the four tested pHs (7.4, 6.9, 6.45, and 6.0, respectively). The 8-point hVISTA titration used in these assays was chosen to provide increased confidence in kinetic values reported at neutral pH conditions. A relatively stringent cutoff for non-binding was applied in this assay. Certain progeny of P1-061029 antibody (P1-068757, ‘759, ‘765, ‘771, and ‘775) show no binding to hVISTA at micromolar concentrations at pH 7.4, while ‘761 and ‘767 show no binding to hVISTA at 100 nM at pH 7.4 but do show binding to hVISTA at micromolar concentrations.

[3] = target: T2, monovalent hVISTA-ECD (amino acids …); assay: SPR, Ab on Protein A, hVISTA 100-7.8 nM, pH 7.4
Description: as §1

[4] = target: T2, monovalent hVISTA-ECD (amino acids …); assay: SPR 37C, Ab on Protein A, hVISTA-ECD 50-0.2 nM, pH 6.0
Description: (§2) Surface plasmon resonance (SPR) analysis was performed to measure the association rates (defined as ka or kₒₙ, 1/Ms units), dissociation rates (defined as kd or koff, s⁻¹ units) and affinity constants (defined as KD, M units) for VISTA Abs at acidic and physiological pHs using a Biacore® T200 instrument (GE Healthcare). […] Antibodies were diluted to 20 nM in PBST pH 7.4, and were captured across active biosensor flow cells at 5 ul/min for 50 seconds. A concentration series of 50 - 0.2 nM monovalent hVISTA-ECD (SEQ ID NO: 325) was prepared in pH 7.4 and 6.0 running buffers, and was injected over the captured antibodies at 40 ul/min to measure association and dissociation. Two 15 second injections of 10 mM glycine pH 1.5 were used to regenerate the Protein A capture surface between assay cycles. Rate constants kₐ (kₒₙ) and kd (kₒff) were derived from reference flow cell and 0 nM blank-subtracted sensorgrams, and were fit to a 1:1 binding model in Biacore® T200 Evaluation Software v.2.0.

[5] = target: T2, monovalent hVISTA-ECD (amino acids …); assay: SPR 37C, Ab on Protein A, hVISTA-ECD 50-5 nM, pH 6.0, average
Description: (§3) Binding of several preparations of each of the ‘029 progeny clones and of the parent ‘029 antibodies, formatted as IgG1.3 antibodies, to human VISTA at pH 6.0 and 7.4 was measured by Surface plasmon resonance (SPR). SPR analysis was performed to measure koff and KD binding affinity measurements for VISTA Abs at acidic and neutral pHs using a Biacore® T100 instrument (GE Healthcare). […] Antibodies were diluted to 25 nM in PBST pH 7.4, and were captured across active biosensor flow cells at 5 ul/min for 60 seconds. A concentration series of 50 - 5 nM monovalent hVISTA-ECD (SEQ ID NO: 325) was prepared in pH 7.4 and 6.0 running buffers, and was injected over the captured antibodies at 40 ul/min to measure association and dissociation. Two 15 second injections of 10 mM glycine pH 1.5 were used to regenerate the Protein A capture surface between assay cycles. Rate constants ka (kₒₙ) and kd (koff) were derived from reference flow cell and 0 nM blank-subtracted sensorgrams, and were fit to a 1:1 binding model in Biacore® T200 Evaluation Software v.2.0. The affinity constant, KD was calculated as the ratio of rate constants koff/kₒₙ for each VISTA antibody.

[6] = target: T2, monovalent hVISTA-ECD (amino acids …); assay: SPR 37C, Ab on Protein A, hVISTA-ECD 50-5 nM, pH 7.4, average
Description: as §3

[7] = target: T2, monovalent hVISTA-ECD (amino acids …); assay: SPR 37C, Ab on Protein A, hVISTA-ECD 50-0.2 nM, column headed pH 7 (running buffer pH 7.4 in the text)
Description: as §2

[8] = target: T2, monovalent hVISTA-ECD (amino acids …); assay: SPR 37C, Ab on Protein A, hVISTA-ECD 50-5 nM, pH 6.0, average; ka printed Too fast, KD ND
[9] = target: T3, avidin (ThermoFisher Scientific catalog #21128) (UniProt P02701 25-152); assay: SPR 25C, Ab on Protein A, pH 6 and pH 7.4
T3 construct: pI control protein

[10] = target: T4, BSA (Calbiochem catalog #126593) (UniProt P02769 25-607); assay: SPR 25C, Ab on Protein A, pH 6 and pH 7.4
T4 construct: pI control protein

[11] = target: T2, monovalent hVISTA-ECD (amino acids …); assay: SPR, Ab on Protein A, hVISTA 100-7.8 nM, pH 7.4 (second row of this ligand)

T3 sequence (P02701 25-152 limits assumed): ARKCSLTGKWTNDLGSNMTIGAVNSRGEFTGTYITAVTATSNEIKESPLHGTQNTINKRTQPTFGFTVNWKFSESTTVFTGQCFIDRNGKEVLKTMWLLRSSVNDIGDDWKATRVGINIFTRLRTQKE
T4 sequence (P02769 25-607 limits assumed): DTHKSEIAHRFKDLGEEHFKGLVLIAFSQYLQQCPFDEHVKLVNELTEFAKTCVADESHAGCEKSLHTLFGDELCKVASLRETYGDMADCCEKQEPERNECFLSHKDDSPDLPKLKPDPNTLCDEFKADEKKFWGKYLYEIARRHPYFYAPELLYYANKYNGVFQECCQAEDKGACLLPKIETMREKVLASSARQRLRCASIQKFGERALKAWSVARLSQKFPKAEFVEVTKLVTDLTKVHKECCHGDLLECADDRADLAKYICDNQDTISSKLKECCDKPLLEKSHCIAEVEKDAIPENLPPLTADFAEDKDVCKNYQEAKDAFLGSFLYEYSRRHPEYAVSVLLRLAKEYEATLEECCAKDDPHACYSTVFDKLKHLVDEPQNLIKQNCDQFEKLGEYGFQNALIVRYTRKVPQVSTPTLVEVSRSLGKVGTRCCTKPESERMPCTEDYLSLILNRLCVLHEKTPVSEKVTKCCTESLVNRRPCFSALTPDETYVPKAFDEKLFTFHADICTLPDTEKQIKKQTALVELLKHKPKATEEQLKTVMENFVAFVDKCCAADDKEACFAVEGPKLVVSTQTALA

B1: VISTA.5 (mAb1) (antibody, V domains shown)
VH: AVQLQESGPGLVRPSQSLSLTCTVTDYSITSDYAWNWIRQFPGSKLEWLGFIGYSGNTNYNPSLESRISITRHTSKNQFFLHLNSMTTEDTATYYCARSLYGGSHWYFDVWGAGTTVTVSS
VL: DIVLTQSPASLAVSLGQRATISCRGSESVEYYGTILMQWYQQKPGQPPKLLIYGASNVESGVPARFSGSGSGTDFSLNIHPVEEDDIAMYFCQQSRKVPWTFGGGTKLEIK
B1 was tested, and the “EC50, AML3 viability (Cell Titer Glo) with anti-human IgG secondary antibody-drug conjugate” value [1] was 0.485 µg/mL.

B2: P1-061015.IgG1.3 (antibody, V domains shown)
VH: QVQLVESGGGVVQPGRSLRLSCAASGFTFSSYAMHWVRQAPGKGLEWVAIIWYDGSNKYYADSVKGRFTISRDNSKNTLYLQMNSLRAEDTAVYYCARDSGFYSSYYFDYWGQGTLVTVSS
VL: EIVLTQSPATLSLSPGERATLSCRASQSVSSSYLAWYQQKPGQAPRLLIYDASNRATGIPARFSGSGSGTDFTLTISSLEPEDFATYYCQQYNSYPYTFGQGTKLEIKR
notes: IgG1.3
For B2, the “7.4 KD/ 6.0 KD” value [2] was 8.2, the “7.4 kd/ 6.0 kd” value [2] was 1.1 and the Kd [3] was 5.12 nM. For the same binder, the koff [3] was 0.00168 s⁻¹, the kon [3] was 329000 M⁻¹ s⁻¹ and the koff [4] was 0.0014 s⁻¹. The Kd [5] was 0.54 nM, the koff [5] was 0.00095 s⁻¹ and the kon [5] was 1.8e+06 M⁻¹ s⁻¹. For the same binder, the Kd [6] was 8.8 nM, the koff [6] was 0.002 s⁻¹ and the kon [6] was 230000 M⁻¹ s⁻¹. It also gave a koff [7] of 0.0023 s⁻¹.

B3: P1-068740 (antibody, human IgG1, kappa, V domains shown)
VH: QVQLVESGGGVVQPGRSLRLSCAASGFTFSDYAMHWVRQAPGKGLEWVAIIWYDGSDKDYADSVKGRFTISRDNSKNTLYLQMNSLRAEDTAVYYCARDSGFYDSYYFDDWGQGTLVTVSS
VL: EIVLTQSPATLSLSPGERATLSCRASQSVSSSYLAWYQQKPGQAPRLLIYDASNRATGIPARFSGSGSGTDFTLTISSLEPEDFATYYCQQYNSYPYTFGQGTKLEIKR
notes: IgG1.3
For B3, the koff [8] was 0.047 s⁻¹.

B4: P1-068767.IgG1.3 (antibody, V domains shown)
VH: EVQLVESGGGLVQPGKSLRLSCAASGFTLEDYAMHWVRQAPGKGLEWVSGIDWNSENIGYADSVKGRFTISRDNAKNSLYLQMNSLRTEDTALYYCAKVPGYSGGWIDAEDDWGQGTMVTVSS
VL: not shown
notes: IgG1.3; also called P1-068767-22; P1-068767 hIgG1.3f
B4: no binding (tested: 10 RU; analyte 100-10 nM) [9]; no binding (tested: 10 RU; analyte 100-10 nM) [10].

B5: P1-72000 (P1-061029_F100fE_V102D) (antibody, V domains shown)
VH: EVQLVESGGGLVQPGKSLRLSCAASGFTLDDYAMHWVRQAPGKGLEWVSGINWNSANIGYADSVKGRFTISRDNAKNSLYLQMNSLRTEDTALYYCAKVPGYSGGWIDAEDDWGQGTMVTVSS
VL: not shown
notes: also called P1-072000-3
For B5, the “7.4 KD/ 6.0 KD” value [2] was 258, the “7.4 kd/ 6.0 kd” value [2] was 14.2 and the Kd [3] was 2700 nM. The koff [3] was 0.038 s⁻¹, the kon [3] was 14000 M⁻¹ s⁻¹ and the Kd [11] was 1400 nM. For the same binder, the koff [11] was 0.032 s⁻¹ and the kon [11] was 24000 M⁻¹ s⁻¹.
